Assay [1] addresses GFP-tagged tauC3 S416E, doxycycline-inducible in HEK293 Flp-In T-REx cells. Nature of the assay: co-IP.
The target in assay [2] is Recombinant human CHIP (C-terminus of Hsc70 interacting protein; STUB1) (human) (UniProt Q9UNE7). Nature of the assay: ELISA. Background: An ELISA detects its analyte on a solid surface through an enzyme-linked reagent.
For assay [3], the target named is CHIP (UniProt Q9UNE7). Nature of the assay: differential scanning fluorimetry of CHIP. To be noted: reference: WT peptide; sites S416. (Differential scanning fluorimetry follows unfolding on heating by fluorescence.)
For assay [4], the target named is CHIP (UniProt Q9UNE7). Nature of the assay: co-IP with anti-Tau-5, CHIP blot. To be noted: reference: GFP-tauC3; sites S416.
The target of assay [5] is Recombinant human CHIP (C-terminus of Hsc70 interacting protein; STUB1) (human) (UniProt Q9UNE7). Nature of the assay: ELISA. This is another data set of the same source.
For assay [6], the target named is CHIP, NanoBiT fusion expressed in HEK293T cells (UniProt Q9UNE7). Nature of the assay: split reporter.
In assay [7] the target is T1, Recombinant human CHIP (C-terminus of Hsc70 interacting protein; STUB1) (human, UniProt Q9UNE7 1-303).
T1 sequence (looked up): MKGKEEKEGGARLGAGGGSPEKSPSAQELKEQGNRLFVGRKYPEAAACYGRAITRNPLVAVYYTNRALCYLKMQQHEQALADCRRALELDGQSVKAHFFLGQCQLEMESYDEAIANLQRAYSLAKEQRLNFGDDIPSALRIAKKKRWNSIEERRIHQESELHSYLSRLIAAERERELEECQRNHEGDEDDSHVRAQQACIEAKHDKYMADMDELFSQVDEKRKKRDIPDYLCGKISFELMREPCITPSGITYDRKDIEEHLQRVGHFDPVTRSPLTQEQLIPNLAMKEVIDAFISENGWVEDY
Nature of the assay: fluorescence polarisation.

For assay [8], the target named is T2, CHIP D134A (human, UniProt Q9UNE7 1-303, D134A).
T2 sequence (looked up): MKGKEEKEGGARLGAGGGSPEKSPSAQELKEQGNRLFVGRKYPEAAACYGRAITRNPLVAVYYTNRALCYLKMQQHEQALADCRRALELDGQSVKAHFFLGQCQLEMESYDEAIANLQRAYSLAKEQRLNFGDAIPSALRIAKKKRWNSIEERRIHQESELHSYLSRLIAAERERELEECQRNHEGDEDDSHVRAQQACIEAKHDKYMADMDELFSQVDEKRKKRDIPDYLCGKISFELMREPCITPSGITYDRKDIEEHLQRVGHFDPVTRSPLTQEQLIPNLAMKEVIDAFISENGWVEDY
Nature of the assay: fluorescence polarisation. A general note: Fluorescence polarisation rises when a labelled molecule tumbles more slowly, as on binding a larger partner.

In another assay the target is T3, CHIP F131A (human, UniProt Q9UNE7 1-303, F131A).
T3 sequence (looked up): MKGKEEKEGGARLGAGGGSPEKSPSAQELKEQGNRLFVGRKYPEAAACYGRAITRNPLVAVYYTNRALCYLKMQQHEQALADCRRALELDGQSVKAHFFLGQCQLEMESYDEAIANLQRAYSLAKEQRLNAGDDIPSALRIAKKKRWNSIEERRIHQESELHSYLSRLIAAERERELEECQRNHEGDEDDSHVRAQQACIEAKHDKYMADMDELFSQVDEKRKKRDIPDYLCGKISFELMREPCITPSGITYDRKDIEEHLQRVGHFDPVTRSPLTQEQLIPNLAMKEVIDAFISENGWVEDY
Nature of the assay: differential scanning fluorimetry.

Assay [9] deals with T2, CHIP D134A. Nature of the assay: differential scanning fluorimetry.

Read-outs that look alike come from different tables or passages of the source. Where no end group is shown, it is not given here. [ ]: non-standard residue; d: D form. pS = N[C@@H](COP(=O)(O)O)C(=O)O

Take “endogenous CHIP (from UniProt Q9UNE7 1-303) (enzyme)”: the relative amount of CHIP bound (normalized to tauC3) in assay [1] turned out to be 0.55. The term Kd denotes the constant that tells how readily two partners part at equilibrium. As to “natively phosphorylated tauC3 (p.tauC3) from Sf9 insect cells (domain or fragment)”, the Kd in assay [2] amounted to 700 nM. In the case of “tau (MAPT); tauC3 proteoform C-terminal 10-mer ending at D421 (from UniProt P10636-8) S416E peptide (…)”, in the assay with CHIP [3], the “other: CHIP apparent Tm” value is reported as “weaker; reference 48.81 ± 0.11”. As for “tau (MAPT); tauC3 proteoform tauC3, C-terminus at D421 (from UniProt P10636-8) GFP-tauC3 S416E”, the other: relative CHIP bound, normalised to tauC3 with CHIP [4] amounted to 0.55.

As for “tauC3 (unmodified, produced from E. coli) (domain or fragment)”, the Kd was found to be 190 nM in assay [2] and 90 nM in assay [5]. In the case of “tauC3 S416E (purified protein) (domain or fragment)”, in assay [5], the dissociation constant Kd came to 780 nM. “tauC3, NanoBiT fusion expressed in HEK293T cells (domain or fragment)” registered a fold binding over FL tau in assay [6] of 5 fold.

B1: tauC3 pS416 10-mer peptide (peptide)
peptide: SSTG[pS]IDMVD
Broadly, the Ki is a measure of affinity in units of concentration, obtained from inhibition or displacement. With B1, the Ki in [7] was found to be 1010 ± 990 nM; in the assay with CHIP D134A [8], 1840 ± 230 nM.

B2: acetylated 10-mer peptide corresponding to the tauC3 C-terminus (Ac-SSTGSIDMVD-OH) (peptide)
peptide: Ac-SSTGSIDMVD-OH
In the case of B2, the binding result with CHIP F131A was “binds”. The Ki in assay [7] stood at 150 ± 20 nM; with CHIP D134A [8], 5570 ± 340 nM.

B3: pS416 phosphomimetic 10-mer tauC3 peptide (SSTGEIDMVD) (peptide)
peptide: Ac-SSTGEIDMVD
Consider B3, for which the binding result with CHIP F131A and with CHIP D134A [9] was “binds” in each case. For the same molecule, the inhibition constant (Ki) in [7] is 2410 ± 330 nM.

These data come from PMC10462110 (bioRxiv, 2023).
